Test: yeast display, Sf9 membrane polyspecificity reagent, FACS + sequencing; frameworks hold sequencing errors
In short: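 Galactose-induced (36–48 hours) yeast carrying a synthetic nanobody display library were exposed to 10% biotinylated, detergent-solubilized Sf9 membrane reagent at 4 °C for 1 hour. FACS followed streptavidin microbead enrichment, using low and high (top ~1%) gates for expression (anti-HA) and reagent binding (streptavidin). Colony PCR, MiSeq 2 × 250 sequencing and CDR-length filtering followed. Labels for polyreactivity reflect the gate of origin.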

| Sequence | polyreactivity (PSR sort gate) |
| --- | --- |
| QVQLVDSGGGLVQAGGSLRLSCAASGNTFIYYAMGWYRQAPGKERELVAAITWSGGSTYYADSVKGRFTISRDNAKNTVYLQMNSLKPEDTAVYYCAKFTHNYYYWGQGTQVTVSS | high polyreactivity |
| QVQLVESGGGLVQAGGSLRLSCAASGFIFRTNAMGRYRQAPGKEREFVAAIRWSGGSTYYADSVKGRFTISRDNAKKTVYLQMNSLKPEDTAVYYCAAEIYLSTYFYPHSIYDYWGQGTQVTVSS | high polyreactivity |
| QVQLVESGVGLVQAGGSLRLSCAASGRIFNSYAMGWYRQAPGKERELVAAISRNGGITYYADSVKGRFTISRDNAKNTVYLQMNSLKPEDTAVYYCAADGLTPKAIWTSDYWGQGTQVTVSS | high polyreactivity |
| QVQLVESGGGLVQAGGSLRLSCAASGNTFGPYAMGWYRQAPGKERELVAAITWTDTSTHYADSVKGRFTISRDNAKNTVYLQMNSLKPEDTAVYYCARVYYVNTYRYRAGYYYWGQRTQVTVSS | high polyreactivity |
| QVQLVESGGGLVQAGGSLRLSCAASGRIITLYAMGWYRQAPGKERELVAGISRSGGSTYYADSVKGRFTISRDNAKNTVYLQMNSLKPEDTAVSYCNAVPIYYAWRRNKPFDYWGQGTQVTVSS | low polyreactivity |
| QVQLVETGGGLVQAGGSLRVSCAASGRTFVGNAMGWYRQPPGKERELVAAISYSGDDTYYADSVKGRFTISRDNAKNTVYLQMNSLKPVDTAVYYCAAEWTAENAGIVLELEYWGQGTQVTVSS | high polyreactivity |
| QVQLVESGGGLVQAGGSLRLSCDASGFTFYYYTMGWYRQAPGKERELVAAITWRGGSTNYADSVKGRFTISRDNAKNTVYVQMNSLKPEDTAVYYCAAVTYWFWPGMDYWGQGTQVTVSS | low polyreactivity |
| QVQLVESGGGLVQAGGSLRLSCAASGRIFYFNVMGWYRQAPGKVRELVAAIRWSVGTTYYADSVKGRFTISRDNAKNTVYLQMNSLKPEDTAVYYCAARRSFPLGTARMYYWGQGTQVTVSS | high polyreactivity |
| QVQLVESGGGLVQAGGSLRLSCAASGSTFYPYAMGWYRQAPGKEREFVAGISRSGGTTYYADSLKGRFTISRDNAKNTVYLQMNSLKPEDTAVYYCAVQIPYVYWSYDYWGQGTEVTVSS | low polyreactivity |
| QVQLVESGGGLVQAGGSLRLSCAASGRTFGIYAMGWYRQAPGKERELVATISWRGGSTYYADSVKGRFTISRDNAKNTVYLQMNSLKPEDTAVSYCAAGYYPYWGQGTQVTVSS | low polyreactivity |
| QVQLVESGGGLDQAGGSLRLSCAASGSIFRPYTMGWYRQAPGKERELVAAITGTCGSTRYADSVKGRFTISRDNAKNTVYLQMNSLNPEDNAVYYCAVYPPYRGRYDYRKYDSWGQGTQVTVSS | low polyreactivity |
| QVQLVESGGGLVQAGGSLRLSCAASGPIFKRNDMGWYRQSHGKERELVAAISGSGGRTYYADSLKGRFTISRDNAKNTVYLQMNSLKPEDTAVYYCNAGGSYYARGMDYWGQGTQVTVSS | high polyreactivity |
| QVQLVESGGGLVQAGGSLRLSCAASGFTFNNYAMGWYRQAPGKERELVAAISSGAGTYYADSVKGRFTISRDNAKNTVYLQMNSLKPEDTAVYYCNASLKYQGLTRITYRDDYWGQGTQVTVSS | low polyreactivity |
| QVQLVESGGGLVQAGGSLRLSCAASGRIIGHYAMGWYRQAPGKERDLVAAISRGGSTYYADSVKGRFTISRDNAKNTVYLQKTSLKPEDTAVYYCAVRSGRRNYDRPAFGYWGQGTQVTVSS | high polyreactivity |
| QVQLVESGGGLFQAGGSHRLSCAASGSTFYYKAMGWYRQAPGKESELVARISRSGGSTYADSVKGRFTISRDNAKNNVYLQMNSLKPEDTAVYYCNKRGFYTPSVSYDYWGQGTQVTVSS | low polyreactivity |
| QVQLVESGGGLVQAGGSLRLSCAASGSIFRLNAMGWYRQARGKERELVARIDSSGSTNYTDSVKGRFTISRDNAKNTVYLQMNSLKPEDTAVYYCAAGLVLIVGMDSWGQGTQVTVSS | low polyreactivity |
| QVQLVESGGGLVQAGGSLRLSCAASGFIFTRNVMGWYRQAPGKERELVAGITYTSGSTYYADSVKGRFTISRDNAKNTVYLQMNSLKPEDTAVYYCAAEITRHYVFGDDYWGQGTQVTVSS | low polyreactivity |
| QVQLVESGGGLVQAGGSLRLSCAASGSIFQSYAMGWYRQAPGKERELVATITISDGSTYYADSVKGRFTISRDNAKNTVYLQMNSLKPEDTAVYYCAATDYISYGAPLRRGLNYDYWGQGTQVTVSS | low polyreactivity |
| QFQLVETGGGIVHAGGSLRLSCAASGSTFWYYAMGWYRQAPGKERELVAGITQSGGSTYYADSVKGRFTISRDNAKNTVYLQMNSLKPEDSAVYYFAKDGRVSGDFVYWGQGTQVTVSS | low polyreactivity |
| QVQLVESGGGLVQAGGSLRLSCAASGSTFYLNVMGWYRQAPGKERELVAAISSGDGSTYYADSVKGRFTISRDNAKNTVYLQMNSLKPEDTAVYYCAAEPDTEVDYDYWGQGTQVTVSS | low polyreactivity |
| EVQVVESGGGLVQAGGSLRLSCAASGRIFLRNAMGWYRQAPGKEWEFVATITSGGSTFYADSVKGRFTISRDNAKNTFYLQMNRLKPEDTAVYYCAAPSYYTPFHTPNYCWGQVTQVTVSS | low polyreactivity |
| QVQLVESGGGLVQAGGSLRISCAASGFTFTYYTMGWYRQAPGKERELVAAINRSGTSTYYADSVKGRFTISRDNAKNTVYLQMNSLKPEDTAVYYCAAKFTTGYYYGVPRDYWGQGTQVTVSS | high polyreactivity |

| Sequence | polyreactivity (PSR sort gate) |
| --- | --- |
| QVQLVESAGGLVQAGGSLRLSCAASGRIFPRYAMGWYRQAPGKERELVAAINTSGGRTYYADSVKGRFTISRDYAKNTVYLQMNSLKPEDTAVYFCAADYRSRYDYWGQGTQVTVSS | high polyreactivity |
| QVQLVESGGGLVQAGGSLRLSCAASGRTFGGYAMGWYRQAPGKERELVAAITWRGGRTFYADSVKGRFTISRDNAKNTVYLQMNSLKPEDTAVYYCNVVKYGPRYDYWGQGTQVTVSS | high polyreactivity |
| QVQHVESGGDLVQAGGSLRLSCAASGSTSFHNAMGWDIQAPGKEREFVAAMSGSGDRTNYADSVKGRFTISRDNAKNTVYLQMNSLKPEDTAVYYCAARGQPGRRTSSGFFSGGYWGQGTQVTVSS | high polyreactivity |
| QVQLVESGGGLVQAGGSLRLSCSASGSTFDTYAMGWYRKAPGKERELVAAISRSGGSTYYADSVKWRFTISRDNAKNTVYLQMNSLKPEDTAVYFCNALSGDLAGDYWGQGTQVTVSS | high polyreactivity |
| QVQLVESGGGLVQAGGSLRLSCAASGSIFTFYTMGWYRQAPGKERELVAAISQTGGRTYYADSVKGRFTISRDNAKNTVYLQMNSLKPEDTAVYYCAARSKRLAHDYWGQGTQVTVSS | high polyreactivity |
| QVQLVESGGGLVQAGGSLRLSCAASGFTFYYYAMGWYRQAPGKERELVAAIDTGGSTNYADSVKGRFTISRDNAKNTVYLQMNSLKPEDTAVYYCNADTPDHYGHYDYWGQGTQVTVSS | low polyreactivity |
| QVQLVESGVGLVQAGGSLRLSCAASGRILYPNTMGWYRQAPGKERELVAAISGSGYRTYYADSVKGRFTISRDNAKNTVYLQMNSLKPEDTAVYYCAASGYWPFRSGFGYWGQGTQVTVSS | high polyreactivity |
| QVQLVESGGGLVQAGGSLRLSCAASGRTFFYAMGWYRQAPGKEREFVAAISWSGGSTYYADSVKGRFTISRDNAKNTVYLQMNSLKPEDTAVYYCYKVGYYGVGTSKEFDYWGQGTQVTVSS | high polyreactivity |
| QVQLLESGGGLVQAGGSLRLTCAASGFTFDLNAMGWYRQAPGKERELVAAISYSGDDTYYADSVKGRFTISRDNAKNTVYLQMNSLKPEDTAVYYCAADATWTYYQLYDYWGQGNQVTVSS | low polyreactivity |
| QVQLVESGGGLVQAGGSLRLSCAASGRTFTIYAMGSYRQAPGKERELVAAITRSGGGTYYADSVKGRFTISRDNAKNTVYFQMKSLKPEDTAVYYCARDKHWFYGVIGPEDYWGQGTQVTVSS | low polyreactivity |
| QVQLVESGGGLVQAGGSLRLSCAASGRTFDTYVMGWYRQAPGKERELVAAISIGGNTNYADSVKGRFTISRDNAKNTVYLQMNSLKPEDTAVYYCAKAWSGISSRDYDLDYWGQGTQVTVSS | low polyreactivity |
| QVQLVESGAGLVQAGGSLRLSCAASGSISRYYAMGWYRQAPGKERELVAAISVSGGSTYYADSVKGRFTISRDNAKNTVYLQMNSLKPEHTAVYYCKKVRLSDYDWGQGTQVTVSS | high polyreactivity |
| QVQLVESAGGLVQAGGSLRLSCAASGSTFYRYAMGGSRQAPGKERELVAAISSSGGRTYYADSVKGRFTISRDNAKNTVYLQMNSLKPEDTAVYFCATRVGDFHRGKRKRYEYWGQGTQVTVSS | high polyreactivity |
| QVQLVESGGGLVQAGGSLRLSCAASGRIFRYYDMAWYTQAPGKEREFVAAITRSGAITYYADSVKGRFTKSRDNAKNTVYLQMNSLKPEDTAVYYCAARYWAKFGYWGQGTQVTVSS | low polyreactivity |
| QVQLVESGGGLVQAGGSLRLSCAASGSIFRRYAMGWYRQAPGKERELVAAISIGGGSTYYADSVKGRFTISRDNAKITVYLQMNSLKPEDTAVYYCNAYWKDDFEDGPGRRGMDYWGQGTQVTVSS | low polyreactivity |
| QVQLVESGGGLVQAGGSLRLSCAASGSIFGPYAMGWYRPAPGKEREFVAAISGSGGSTYYEDSVKGRFTISRDNAKNTVYLQKNSLTPEDTAVYYCAARQAYVNRGRFRGATLDYWGQGTQVTVSS | high polyreactivity |
| QVQLVESGGGLVQAGGSLRLSCAASGLIFRYYAMGWYRQAPGKERELVASISGSGGSTYYADSVKGRFTISRDNAKNTVYLQMNSLKPEDTAVYYCAATLAVYRRGPRYNYWGQGTQVTVSS | high polyreactivity |
| QVQLVESGGGLVQAGGSLRLSCADSRFNYSYNAMGSYRKAPGKERELVAAISTSGGRTYYADSVKGRFTISRDNAKNTVYLQMNSLKPEDTAVYYCAALSRNQYDPQSYVYWGQGTQVTGSS | high polyreactivity |
| QVQLVESGGGLVQAGGSLRLSCAASGRTLSFYAMGWYRQAPGKERELVAAISRRGGSTYYADSVKGRFTISRDNAKNTVYLQMNSLKPEDTAVYYCAARRWYPYKNYDYWGQGTQVTVSS | high polyreactivity |
| QVQLVESGGGLVQAGGSLRLSCAASGITFAYYVMGWYRQAPGKERELVAAITRSGDITSYADSVKGRFTISRDNAKNTVYLQMNSMKPEDTAVYYCNARRGYQSRRYNYWGQGTQVSVSS | high polyreactivity |
| QVQLVESGGGLVQAGGRLRLSCAASGSTFIDYAMGWYIHAPGKERELVAAITWDGSSTYYADSVKGRFTISRDNAKNTVYLQMNSLKPEDTAVYYCATDYAGQYPVDGQPIHDYWGQGTQVTVSS | low polyreactivity |

Reference: the nanobody polyreactivity screen of Harvey et al. (2022)
